Test results reported in patent US20140294819A1 (NVIP, published 2014).
Positions count from the first letter of the chain named.

How the values were obtained:
[1] = target: T1, canine CD20 cyclic (oxidised, disulphide-bonded) peptide SEQ ID NO:2 (canine, disulphide bond between the two cysteine residues (corresponding to positions 167 and 183); N-terminal biotin in the streptavidin-plate assays); experiment: ELISA, purified antibody on cyclic CD20 peptide
T1 construct: Chemically synthesised and oxidised; also called C20; caCD20 peptide
T1 peptide: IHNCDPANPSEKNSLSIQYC
Experimental: (§1) The purified antibodies shown in FIG. 15 were tested for binding to cyclic CD20 peptides from different species by ELISA as above.

[2] = target: T2, human CD20 cyclic (oxidised) peptide SEQ ID NO:3 (human, disulphide bond between the two cysteine residues; biotinylated); experiment: ELISA, purified antibody on cyclic CD20 peptide
T2 construct: also called H20; human CD20 cyclic peptide
T2 peptide: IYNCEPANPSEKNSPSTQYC
Experimental: as §1

[3] = target: T3, murine CD20 cyclic (oxidised) peptide SEQ ID NO:6 (murine, disulphide bond between the two cysteine residues; biotinylated); experiment: ELISA, purified antibody on cyclic CD20 peptide
T3 construct: also called M20; mouse CD20 peptide
T3 peptide: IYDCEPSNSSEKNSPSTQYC
Experimental: as §1

[4] = target: T4, feline CD20 cyclised peptide SEQ ID NO:4 (feline, cyclised by a disulphide bond between the two cysteine residues); experiment: ELISA, purified antibody on cyclic CD20 peptide
T4 construct: also called feline CD20 peptide
T4 peptide: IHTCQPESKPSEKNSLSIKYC
Experimental: as §1

[5] = target: T1, canine CD20 cyclic (oxidised, …); experiment: ELISA, purified recombinant antibody on cyclic CD20 peptide
Text: (§2) The RA2 and RF2 variable heavy and light chain sequences (SEQ ID NO:23-26) were rebuilt as IgG2a/kappa antibodies by oligonucleotide-based gene synthesis, cloned into pcDNA3.3 vectors and co-expressed in appropriate pairs in CHO cells. The supernatant expressed antibodies were purified by Protein A chromatography and tested for binding by CD20 peptide ELISA (FIG. 11). Both purified recombinant forms of mouse RA2 and RF2 bound strongly to cyclic canine and feline CD20 peptides, and also to mouse and human CD20 peptides (the binding of RA2 to human CD20 peptide was more pronounced than with the corresponding hybridoma supernatant in FIG. 9).

[6] = target: T2, human CD20 cyclic (oxidised) peptide …; experiment: as above
Text: as §2

[7] = target: T3, murine CD20 cyclic (oxidised) peptide …; experiment: as above
Text: as §2

[8] = target: T4, feline CD20 cyclised peptide SEQ ID NO:4; experiment: as above
Text: as §2

[9] = target: T1, canine CD20 cyclic (oxidised, …); experiment: ELISA, hybridoma antibody on cyclic CD20 peptide
Text: (§3) Using a combination of cyclic human (SEQ ID NO:3) and canine (SEQ ID NO:2) CD20 peptides, monoclonal antibodies that would bind both human and canine peptides were screened for using conventional hybridoma screening of mice previously immunised with the cyclic canine CD20 peptide of FIG. 1, coupled to diphtheria toxoid at the amino terminus as a source of T-cell help. Two antibody hybridomas were selected, RA2 and RF2 and tested for binding to these as well as to murine (SEQ ID NO:6) and feline (SEQ ID NO:4) CD20 peptides. RA2 and RF2 bound strongly to canine CD20 and RF2 bound strongly to human CD20 peptide whereas RA2 binds more weakly. Unexpectedly RA2 and RF2 bound strongly to feline and also murine CD20 peptides.

[10] = target: T2, human CD20 cyclic (oxidised) peptide …; experiment: ELISA, hybridoma antibody on cyclic CD20 peptide
Text: as §3

[11] = target: T3, murine CD20 cyclic (oxidised) peptide …; experiment: ELISA, hybridoma antibody on cyclic CD20 peptide
Text: as §3

[12] = target: T4, feline CD20 cyclised peptide SEQ ID NO:4; experiment: ELISA, hybridoma antibody on cyclic CD20 peptide
Text: as §3

[13] = target: T2, human CD20 cyclic (oxidised) peptide …; experiment: ELISA on cyclised CD20 peptide
[14] = target: T3, murine CD20 cyclic (oxidised) peptide …; experiment: ELISA on cyclised CD20 peptide
[15] = target: T4, feline CD20 cyclised peptide SEQ ID NO:4; experiment: ELISA on cyclised CD20 peptide

Measured: binding result

B1: chimeric mouse-canine RF2, HCB isotype (antibody)
heavy: QVQLKQSGPGLVPPSQSLSITCTISGFSLTSYGVHWVRQSPGWGLEWLGVIWSGGSIDYNAAFISRLSISKDNSKSQVFIKMNSLQADDTAIYYCARGPRKFYYFGMDYWGQGTSVTVSSASTTAPSVFPLAPSCGSTSGSTVALACLVSGYFPEPVTVSWNSGSLTSGVHTFPSVLQSSGLYSLSSMVTVPSSRWPSETFTCNVAHPASKTKVDKPVPKRENGRVPRPPDCPKCPAPEMLGGPSVFIFPPKPKDTLLIARTPEVTCVVVDLDPEDPEVQISWFVDGKQMQTAKTQPREEQFNGTYRVVSVLPIGHQDWLKGKQFTCKVNNKALPSPIERTISKARGQAHQPSVYVLPPSREELSKNTVSLTCLIKDFFPPDIDVEWQSNGQQEPESKYRTTPPQLDEDGSYFLYSKLSVDKSRWQRGDTFICAVMHEALHNHYTQESLSHSPGK
light: DVVMTQTPLSLPVSLGDQASISCRSSQNIVHSNGNTYVEWYLQKPGQSPKLLIYKVSNRFSGVPDRFSGSGSGTDFTLKISRVEAEDLGVYYCFQGSHVPLTFGAGTKLELKRNDAQPAVYLFQPSPDQLHTGSASVVCLLNSFYPKDINVKWKVDGVIQDTGIQESVTEQDKDSTYSLSSTLTMSSTEYLSHELYSCEITHKSLPSTLIKSFQRSECQRVD
notes: also called chiRF2-B; chimeric RF2
binds: [1] | [2] | [3] | [4]

B2: recombinant mouse RA2 (IgG2a/kappa) (antibody)
heavy: QVQLKQSGPGLVPPSQSLSITCTVSGFSLTNYGVHWVRQSPGKGLEWLGVIWSGGTTDYNAAFISRLSISKDNSKSQVFFKMNSLQADDTAIYYCARGPRKFYYYGMDYWGQGTSVTVSSAKTTAPSVYPLAPVCGDTTGSSVTLGCLVKGYFPEPVTLTWNSGSLSSGVHTFPAVLQSDLYTLSSSVTVTSSTWPSQSITCNVAHPASSTKVDKKIEPRGPTIKPCPPCKCPAPNLLGGPSVFIFPPKIKDVLMISLSPIVTCVVVDVSEDDPDVQISWFVNNVEVHTAQTQTHREDYNSTLRVVSALPIQHQDWMSGKEFKCKVNNKDLPAPIERTISKPKGSVRAPQVYVLPPPEEEMTKKQVTLTCMVTDFMPEDIYVEWTNNGKTELNYKNTEPVLDSDGSYFMYSKLRVEKKNWVERNSYSCSVVHEGLHNHHTTKSFSRTPGK
light: DVLMTQTPLSLPVSLGDQASISCRSSQSIVHSNGNTYLEWYLQKPGQSPKLLIYKVSNRFSGVPDRFSGSGSGTDFTLKISRVEAGDLGVYYCFQGLHVPLTFGAGTRLELKRADAAPTVSIFPPSSEQLTSGGASVVCFLNNFYPKDINVKWKIDGSERQNGVLNSWTDQDSKDSTYSMSSTLTLTKDEYERHNSYTCEATHKTSTSPIVKSFNRNEC
notes: also called muRA2
binds: [5] | [6] | [7] | [8]

B3: recombinant mouse RF2 (IgG2a/kappa) (antibody)
heavy: B2 heavy with V24I, N31S, K43W, T56S, T57I, F80I, Y105F
light: B2 light with L3V, S28N, L38V, G86E, L97S, R108K
notes: also called muRF2; mouse IgG2a variant of RF2
binds: [5] | [6] | [7] | [8]

B4: RA2 murine monoclonal antibody (hybridoma) (antibody, V domains shown)
VH: QVQLKQSGPGLVPPSQSLSITCTVSGFSLTNYGVHWVRQSPGKGLEWLGVIWSGGTTDYNAAFISRLSISKDNSKSQVFFKMNSLQADDTAIYYCARGPRKFYYYGMDYWGQGTSVTVSS
VL: DVLMTQTPLSLPVSLGDQASISCRSSQSIVHSNGNTYLEWYLQKPGQSPKLLIYKVSNRFSGVPDRFSGSGSGTDFTLKISRVEAGDLGVYYCFQGLHVPLTFGAGTRLELK
notes: Hybridoma supernatant; also called muRA2
binds: [9] | [10] | [11] | [12]

B5: RF2 murine monoclonal antibody (hybridoma) (antibody, V domains shown)
VH: B4 VH with V24I, N31S, K43W, T56S, T57I, F80I, Y105F
VL: B4 VL with L3V, S28N, L38V, G86E, L97S, R108K
notes: Hybridoma supernatant; also called muRF2
binds: [9] | [10] | [11] | [12]

B6: caninised RA2, HCB isotype (antibody)
heavy: EVQLVQSGGGLVKPTESLTISCVVSGFSLTNYGVHWVRQSPGKGLEWLGVIWSGGTTDYNAAFISRLSISKDNSKSTVFLRMNSLRADDTAIYYCARGPRKFYYYGMDYWGQGTSVTVSSASTTAPSVFPLAPSCGSTSGSTVALACLVSGYFPEPVTVSWNSGSLTSGVHTFPSVLQSSGLYSLSSMVTVPSSRWPSETFTCNVAHPASKTKVDKPVPKRENGRVPRPPDCPKCPAPEMLGGPSVFIFPPKPKDTLLIARTPEVTCVVVDLDPEDPEVQISWFVDGKQMQTAKTQPREEQFNGTYRVVSVLPIGHQDWLKGKQFTCKVNNKALPSPIERTISKARGQAHQPSVYVLPPSREELSKNTVSLTCLIKDFFPPDIDVEWQSNGQQEPESKYRTTPPQLDEDGSYFLYSKLSVDKSRWQRGDTFICAVMHEALHNHYTQESLSHSPGK
light: DIVMTQTPLSLSVSQEEEASISCRSSQSIVHSNGNTYLEWYLQKPGQSPKLLIYKVSNRFSGVPDRFSGSGSGTDFTLKISRVEAGDAGVYYCFQGLHVPLTFGAGTKLELKRNDAQPAVYLFQPSPDQLHTGSASVVCLLNSFYPKDINVKWKVDGVIQDTGIQESVTEQDKDSTYSLSSTLTMSSTEYLSHELYSCEITHKSLPSTLIKSFQRSECQRVD
notes: also called caRA2-B
binds: [1] | [2] | [3] | [4]

B7: chimeric mouse-canine RA2, HCB isotype (antibody)
heavy: B1 heavy with I24V, S31N, W43K, S56T, I57T, I80F, F105Y
light: B1 light with V3L, N28S, V38L, E86G, S97L, K108R
notes: also called chiRA2-B; chimeric RA2
binds: [1] | [2] | [3] | [4]

B8: caninised RA2, HCC isotype (antibody)
heavy: EVQLVQSGGGLVKPTESLTISCVVSGFSLTNYGVHWVRQSPGKGLEWLGVIWSGGTTDYNAAFISRLSISKDNSKSTVFLRMNSLRADDTAIYYCARGPRKFYYYGMDYWGQGTSVTVSSASTTAPSVFPLAPSCGSQSGSTVALACLVSGYIPEPVTVSWNSVSLTSGVHTFPSVLQSSGLYSLSSMVTVPSSRWPSETFTCNVAHPATNTKVDKPVAKECECKCNCNNCPCPGCGLLGGPSVFIFPPKPKDILVTARTPTVTCVVVDLDPENPEVQISWFVDSKQVQTANTQPREEQSNGTYRVVSVLPIGHQDWLSGKQFKCKVNNKALPSPIEEIISKTPGQAHQPNVYVLPPSRDEMSKNTVTLTCLVKDFFPPEIDVEWQSNGQQEPESKYRMTPPQLDEDGSYFLYSKLSVDKSRWQRGDTFICAVMHEALHNHYTQISLSHSPGK
light: B6 light
notes: See note of m19; also called caRA2-C
binds: [1] | [2] | [3] | [4]

B9: caninised RF2, HCB isotype (antibody)
heavy: B6 heavy with V24I, N31S, T56S, T57I, L80I, Y105F
light: B6 light with S28N, L38V, G86E, L97S
notes: also called caRF2-B
binds: [13] | [14] | [15] | [1]
